The record followed here is patent US20250032629A1, “NOVEL NUCLEOLIN-BINDING PEPTIDE AND USE THEREOF” (ANYGEN CO., LTD., priority 2020, published 2025).

Ends that are not written are not given here.

The subject of one data set is MCF-10A and CCD-18Co. Kind of data set: Cell-growth-on-bead assay, normal cell lines. The format is cell-based, human. As for the experimental part:
(§1) Here, multiple breast and colorectal cancer cells and normal breast and colorectal cells were re-suspended at 10^6 cells/ml and incubated with beads. All experiments were repeated 3 times, and the scale bar is 200 μm. […] Here, nuclei were stained with DAPI (blue), and scale bar is 50 μm. […] Here, a whole-cell binding assay was performed to determine the cell binding of AGM-330, and the scale bar is 200 μm. […] Fmoc=9-fluorenylmethoxycarbonyl, DMF=dimethylformamide. […] Here, bar graphs represent the mean±SD, and statistical analyses were performed by one-way ANOVA with Dunnett's multiple comparison. *, **, and *** indicate P<0.05, P<0.01, and P<0.001, respectively.
(§2) The beads were washed extensively with double-distilled water and phosphate-buffered saline (PBS; Welgene Inc., Korea) before screening. Cancer cells and normal cells were detached from culture dishes with trypsin/EDTA (Gibco), washed with their corresponding culture medium, resuspended at 10^6 cells/ml, and incubated with OBOC beads in Petri dishes in a humidified CO2 incubator at 37° C. with shaking (60 rpm). Beads bound by cells appeared under a microscope as rosettes with a central bead covered by one or more layers of cells. The positive beads were picked by pipette under an inverted microscope, treated with guanidine-HCL (8 M, 20 min) to remove cells and proteins on the bead surface, and subjected to a second round of screening with normal breast epithelial cells to eliminate false positive binding. Only beads with cell binding at both rounds were sent for peptide sequencing.
(§3) To identify a novel cancer-specific peptide ligand, the present inventors synthesized about 2, 600,000 libraries using 5 g of Tentagel MB NH2 resin (200 μm, 520,000 beads/g; FIG. 3).

The test system of another data set is MDA-MB-231. The experiment in a line: Whole-cell binding (cell-growth-on-bead) assay of screened peptide beads. In kind it is cell-based, human. As for the experimental part:
as §1, §2, §3

The next data set concerns MCF-10A. Described as above. The format is cell-based, human. As for the experimental part: as §1, §2, §3
The next data set concerns Cancer cells. The experiment in a line: ELISA for the affinities of AGM-330 and its variants on cancer cells. The format is cell-based. Particulars: biotin-conjugated PEGylated peptides, 2 hours, read at 450. The protocol:
Then, avidin-HRP was attached through a high-affinity avidin-biotin interaction, and the TMB substrate was converted to blue through HRP enzyme. Then, the reaction was terminated by adding an acid, and the affinities of the 13 peptides were assessed by ELISA by reading the wells at […].
Cancer cells (1×10^4 cells/well) were cultured in 96-well plates for 24 hours. AGM-330 and the 12 PEGylated peptides shown Table 2 were biotin-conjugated, and the cells were treated with increasing concentrations of the 13 peptides for 2 hours.
(§4) Thereafter, avidin-HRP was attached through a high-affinity avidin-biotin interaction, and the TMB substrate was converted to blue color through HRP enzyme. Then, the reaction was terminated by adding an acid, and the affinities of the 13 peptides were assessed by ELISA by reading the wells at […].
(In general: An ELISA detects its analyte on a solid surface through an enzyme-linked reagent.)

The target of a further data set is NCL (Homo sapiens, UniProt P19338). Kind of data set: siRNA-mediated knockdown of NCL (real-time PCR, Western blot). The format is cell-based.
In data set [1] the target is T1, membrane nucleolin (NCL) on cancer cells (human, UniProt P19338 2-710).
T1 construct: whole, on cells; also called membrane NCL; membrane-expressed NCL
The experiment in a line: cell ELISA: biotin-conjugated PEGylated peptide on cancer cells (cell line not given), 2 h, avidin-HRP/TMB, absorbance at 450 nm. The protocol: Cancer cells (1×10⁴ cells/well) were seeded in 96-well plates and cultured for 24 hours, and then the cells were treated with increasing concentrations of 13 biotin-conjugated peptides for 2 hours. Then, avidin-HRP was attached through a high-affinity avidin-biotin interaction, and the TMB substrate was converted to blue through HRP enzyme. Then, the reaction was terminated by adding an acid, and the affinities of the 13 peptides were assessed by ELISA by reading the wells at […].
Cancer cells (1×10⁴ cells/well) were cultured in 96-well plates for 24 hours. AGM-330 and the 12 PEGylated peptides shown Table 2 were biotin-conjugated, and the cells were treated with increasing concentrations of the 13 peptides for 2 hours.
as §4

T1 sequence (P19338 2-710): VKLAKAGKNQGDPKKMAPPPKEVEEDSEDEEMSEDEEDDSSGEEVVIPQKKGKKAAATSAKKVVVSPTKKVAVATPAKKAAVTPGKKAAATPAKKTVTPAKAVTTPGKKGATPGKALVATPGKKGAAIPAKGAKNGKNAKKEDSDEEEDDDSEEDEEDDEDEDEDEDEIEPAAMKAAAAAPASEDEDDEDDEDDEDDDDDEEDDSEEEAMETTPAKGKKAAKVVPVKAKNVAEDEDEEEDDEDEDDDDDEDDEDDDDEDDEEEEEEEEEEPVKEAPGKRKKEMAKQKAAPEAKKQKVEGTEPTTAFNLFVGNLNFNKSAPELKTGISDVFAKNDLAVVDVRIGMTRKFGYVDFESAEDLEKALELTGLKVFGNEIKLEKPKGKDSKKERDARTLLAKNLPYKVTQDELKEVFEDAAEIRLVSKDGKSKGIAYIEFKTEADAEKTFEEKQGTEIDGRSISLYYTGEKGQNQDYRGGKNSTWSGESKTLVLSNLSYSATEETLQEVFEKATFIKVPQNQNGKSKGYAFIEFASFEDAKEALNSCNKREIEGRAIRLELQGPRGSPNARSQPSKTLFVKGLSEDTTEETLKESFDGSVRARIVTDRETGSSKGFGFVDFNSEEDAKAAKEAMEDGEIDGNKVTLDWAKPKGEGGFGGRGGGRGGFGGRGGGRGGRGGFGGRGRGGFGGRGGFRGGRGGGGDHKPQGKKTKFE
NCL, sequence (P19338 whole entry): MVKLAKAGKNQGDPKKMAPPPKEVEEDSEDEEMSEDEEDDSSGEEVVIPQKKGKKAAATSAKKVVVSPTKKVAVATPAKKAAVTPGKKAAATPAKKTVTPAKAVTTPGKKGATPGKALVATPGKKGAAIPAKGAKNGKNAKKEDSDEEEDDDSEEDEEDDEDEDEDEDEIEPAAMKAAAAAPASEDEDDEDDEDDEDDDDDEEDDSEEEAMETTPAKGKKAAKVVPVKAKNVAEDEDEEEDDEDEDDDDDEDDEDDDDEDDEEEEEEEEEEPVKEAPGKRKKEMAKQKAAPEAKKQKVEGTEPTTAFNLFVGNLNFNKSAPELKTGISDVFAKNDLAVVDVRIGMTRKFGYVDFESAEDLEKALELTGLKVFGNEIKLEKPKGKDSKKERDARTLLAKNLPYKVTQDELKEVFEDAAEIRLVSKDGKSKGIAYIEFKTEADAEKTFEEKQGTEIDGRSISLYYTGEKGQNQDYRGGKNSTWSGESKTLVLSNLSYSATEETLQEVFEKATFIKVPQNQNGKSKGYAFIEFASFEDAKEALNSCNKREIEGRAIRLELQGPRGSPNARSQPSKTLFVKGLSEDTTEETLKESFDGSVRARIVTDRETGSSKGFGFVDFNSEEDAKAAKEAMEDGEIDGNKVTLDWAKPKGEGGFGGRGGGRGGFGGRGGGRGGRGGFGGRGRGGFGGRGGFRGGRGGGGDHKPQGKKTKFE

For ADHRHRRSG (AGM-331), in the data set on MCF-10A and CCD-18Co, the “binding to normal cell lines MCF-10A and CCD-18Co” value is “relatively nonspecific and bound”. The “binding to MDA-MB-231” value in the data set with MDA-MB-231 is on record as “strong preferential binding”. The “binding to the human normal breast cell line MCF-10A” value in the data set on MCF-10A was “no or only weak binding”. For AVARARRRR (AGM-332), the “binding to normal cell lines MCF-10A and CCD-18Co” value in the data set on MCF-10A and CCD-18Co was “relatively nonspecific and bound”. Also, the “binding to MDA-MB-231” value with MDA-MB-231 is reported as “strong preferential binding”. The “binding to the human normal breast cell line MCF-10A” value in the data set with MCF-10A is given as “no or only weak binding”.

As for “RHGA(Nle)VYLK (RHGAXVYLK; norleucine at position 5; AGM-330; Xaa can be any naturally occurring amino acid) [SEQ ID NO: 13]”, the “absorbance (binding affinity) compared with AGM-330” value (“absorbance … compared with AGM-330” below) in the data set on Cancer cells is recorded as “higher absorbance than AGM-330”. In the case of “RHGALVYLK (not fully specified) [SEQ ID NO: 12, AGM-330 variant, tested PEGylated and biotin-conjugated]”, the “absorbance … compared with AGM-330” value in the data set with Cancer cells is reported as “higher absorbance than AGM-330”. For the molecule “RHGAMVFLK (not fully specified) [SEQ ID NO: 15, AGM-330 variant, tested PEGylated and biotin-conjugated]”, the “absorbance … compared with AGM-330” value in the data set on Cancer cells is reported as “higher absorbance than AGM-330”. As for “RHGAMVYLKLKLK (not fully specified) [SEQ ID NO: 20, AGM-330 variant, tested PEGylated and biotin-conjugated]”, the “absorbance … compared with AGM-330” value in the data set on Cancer cells is given as “higher absorbance than AGM-330”. Regarding “siNCL1: siRNA targeting NCL, sense 5′-GAGCUAACCCUUAUCUGUA(dTdT)-3′ (SEQ ID NO: 21/22) (antisense UACAGAUAAGGGUUAGCUC; dTdT overhangs, further chemistry not given here)”, in the data set with NCL (MDA-MB-231 cells, among siNCL1, siNCL2, siNCL3), the “NCL knockdown efficacy (mRNA)” value is “highest knockdown efficacy”. The “basal expression of NCL in cytosolic and cell membrane fractions (Western blotting)” value in the data set with NCL (siNCL1-treated cells) is “potently inhibited”. Broadly, the EC50 (read off the curve) is the concentration that produces a half-maximal response. On to RHRHRHGAMVYLK (also: PEGylated (site not given here), biotin-conjugated (site not given here)) [AGM-330 variant R1H2R3H4 → Insertion (SEQ ID NO: 18)], for which the “EC50 (read off the curve)” value in data set [1] was ~2000 nM. Regarding RHGAMVYLKLKLK (also: PEGylated, biotin-conjugated (sites not given here)) [AGM-330 variant L10K11L12K13 → Insertion (SEQ ID NO: 20)], the binding result in data set [1] is “binds”. On the same count and under the same terms, for KLYVMAGHR (also: PEGylated (site not given here), biotin-conjugated (site not given here)) [AGM-330 variant Reverse sequence (SEQ ID NO: 19)] the value was “binds”; for GAMVYLK (also: PEGylated, biotin-conjugated (sites not given here), also called GAMVYLK) [AGM-330 variant R1H2 → Deletion (SEQ ID NO: 16)], “binds”; for RHRHGAMVYLK (also: PEGylated, biotin-conjugated (sites not given here)) [AGM-330 variant R1H2 → Insertion (SEQ ID NO: 17)], “binds”. Regarding RHGLMVYLK (also: PEGylated, biotin-conjugated (sites not given here)) [AGM-330 variant A4 → L4 (SEQ ID NO: 11)], the concentration for a half-maximal effect (EC50 (read off the curve)) in data set [1] was ~2000 nM. On to RHGALVYLK (also: PEGylated, biotin-conjugated (sites not given here)) [AGM-330 variant M5 → L5 (SEQ ID NO: 12)], for which the concentration giving a half-maximal response (EC50 (read off the curve)) in data set [1] is ~2000 nM. With RRGAMVYLK (also: PEGylated, biotin-conjugated (sites not given here)) [AGM-330 variant H2 → R2 (SEQ ID NO: 10)], the “EC50 (read off the curve)” value in data set [1] is ~2000 nM. Take RHGAMVFLK (also: PEGylated (site not given here), biotin-conjugated (site not given here)) [AGM-330 variant Y7 → F7 (SEQ ID NO: 15)]: the “EC50 (read off the curve)” value in data set [1] was ~2000 nM.

Consider KHGAMVYLK (also: PEGylated, biotin-conjugated (sites not given here)) [AGM-330 variant R1 → K1 (SEQ ID NO: 9)], for which, in data set [1], the concentration giving a half-maximal response (EC50 (read off the curve)) was ~2000 nM. Same read-out and setting: for RHGAMAYLK (also: PEGylated (site not given here), biotin-conjugated (site not given here)) [AGM-330 variant V6 → A6 (SEQ ID NO: 14)] the value was ~2000 nM.

Consider RHGAXVYLK (norleucine (Nle) at position 5; PEGylated; biotin-conjugated (sites not given), also called RHGA(Nle)VYLK) [AGM-330 variant M5 → Nle5 (SEQ ID NO: 13)], for which the binding result in data set [1] was “binds”.

B1: Biotinylated AGM-330 (peptide)
peptide: RHGAMVYLK
modifications: also: biotin-conjugated (site not given here)
notes: Bait of the pull-down assays; also called AGM-330-biotin; AGM-330-Biotin
Consider B1, for which, in data set [1], the “EC50 (read off the curve)” value was ~2000 nM.
